# Assay results published in paper PMC3690481.
# pKd: −log10 of the molar value.
# Legend:
# [1] = molecular target: FlAsH-tagged Met1-diUb E16A^prox (UniProt P0CG48); assay: fluorescence anisotropy
# [2] = molecular target: Lys63-linked diUb (UniProt P0CG48); assay: fluorescence polarisation; FlAsH-tagged diUb fixed (10 μl of 100 nM plus 10 μl protein), OTULIN C129A variants serially diluted; 20 mM Tris pH 7.4, 100 mM NaCl, 5 mM β-mercaptoethanol, 0.1 mg/ml BSA; one-site binding model; triplicate
Substance,pKd [1],pKd [2]
m1; m3 OTULIN:N341D; proximal Ub:E16A,6.93,
OTULIN (1–352) C129A (from UniProt Q96BN8 1-352) (enzyme),,4.92
